Measurements: ChEMBL document CHEMBL1155806, “Inorganic polyhedral metallacarborane inhibitors of HIV protease: a new approach to overcoming antiviral resistance” (J Med Chem, 2008)

How the values were obtained:
[1] = tested on: Cc1c(O)cccc1C(=O)N[C@@H](CSc1ccccc1)[C@H](O)CN1C[C@H]2CCCC[C@H]2C[C@H]1C(=O)NC(C)(C)C; conditions: Human immunodeficiency virus 1
[2] = tested on: Cc1c(O)cccc1C(=O)N[C@@H](CSc1ccccc1)[C@H](O)CN1C[C@H]2CCCC[C@H]2C[C@H]1C(=O)NC(C)(C)C; conditions: Human immunodeficiency virus 1; remark: listed apart in the source
[3] = tested on: Cc1c(O)cccc1C(=O)N[C@@H](CSc1ccccc1)[C@H](O)CN1C[C@H]2CCCC[C@H]2C[C@H]1C(=O)NC(C)(C)C; conditions: Human immunodeficiency virus 1; remark: listed apart in the source
[4] = tested on: Cc1c(O)cccc1C(=O)N[C@@H](CSc1ccccc1)[C@H](O)CN1C[C@H]2CCCC[C@H]2C[C@H]1C(=O)NC(C)(C)C; conditions: Human immunodeficiency virus 1; remark: listed apart in the source
[5] = tested on: Cc1c(O)cccc1C(=O)N[C@@H](CSc1ccccc1)[C@H](O)CN1C[C@H]2CCCC[C@H]2C[C@H]1C(=O)NC(C)(C)C; conditions: Human immunodeficiency virus 1; remark: listed apart in the source
[6] = tested on: Cc1c(O)cccc1C(=O)N[C@@H](CSc1ccccc1)[C@H](O)CN1C[C@H]2CCCC[C@H]2C[C@H]1C(=O)NC(C)(C)C; conditions: Human immunodeficiency virus 1; remark: listed apart in the source
[7] = tested on: Cc1c(O)cccc1C(=O)N[C@@H](CSc1ccccc1)[C@H](O)CN1C[C@H]2CCCC[C@H]2C[C@H]1C(=O)NC(C)(C)C; conditions: Human immunodeficiency virus 1; remark: listed apart in the source
[8] = tested on: Cc1c(O)cccc1C(=O)N[C@@H](CSc1ccccc1)[C@H](O)CN1C[C@H]2CCCC[C@H]2C[C@H]1C(=O)NC(C)(C)C; conditions: Human immunodeficiency virus 1; BH10

Substance: Human immunodeficiency virus type 1 protease (Human immunodeficiency virus 1), Q72874 M46I,A71V,V82T,I84V
- Km [1]: 48 µM
- kcat [1]: 14 s⁻¹

Substance: Human immunodeficiency virus type 1 protease (Human immunodeficiency virus 1), Q72874 A71V,V82T,I84V
- Km [2]: 36 µM
- kcat [2]: 11 s⁻¹

Substance: Human immunodeficiency virus type 1 protease (Human immunodeficiency virus 1), Q72874 L10I,L24I,L33F,M46L,I54V,L63P,A71V,V82A,I84V
- Km [3]: 14 µM
- kcat [3]: 6.4 s⁻¹

Substance: Human immunodeficiency virus type 1 protease (Human immunodeficiency virus 1), Q72874 V32I,I47A
- Km [4]: 35 µM
- kcat [4]: 7.5 s⁻¹

Substance: Human immunodeficiency virus type 1 protease (Human immunodeficiency virus 1), Q72874 L10F,L19I,K20R,L33F,E35D,M36I,R41K,F53L,I54V,L63P,H69K,A71V,T74P,I84V,L89M,L90M,I93L
- Km [5]: 13 µM
- kcat [5]: 10 s⁻¹

Substance: Human immunodeficiency virus type 1 protease (Human immunodeficiency virus 1), Q72874 L10I,I15V,E35D,N37S,R41K,I62V,L63P,A71V,G73S,L90M
- Km [6]: 8.3 µM
- kcat [6]: 12 s⁻¹

Substance: Human immunodeficiency virus type 1 protease (Human immunodeficiency virus 1), Q72874 D30N,N88D
- Km [7]: 18 µM
- kcat [7]: 24 s⁻¹

Substance: Protease (Human immunodeficiency virus 1), Q9YQ12
- Km [8]: 15 µM
- kcat [8]: 30 s⁻¹
